Test [1] addresses T1, biotinylated MCSP antigen (amino acids 1553 to 2184 of matured melanoma-associated chondroitin sulfate … (Homo sapiens (Human), UniProt Q6UVK1 1582-2213, limits assumed, biotin on the C-terminal avi-tag)).
T1 construct: The entry may include the leader; also called recombinant MCSP
T1 sequence: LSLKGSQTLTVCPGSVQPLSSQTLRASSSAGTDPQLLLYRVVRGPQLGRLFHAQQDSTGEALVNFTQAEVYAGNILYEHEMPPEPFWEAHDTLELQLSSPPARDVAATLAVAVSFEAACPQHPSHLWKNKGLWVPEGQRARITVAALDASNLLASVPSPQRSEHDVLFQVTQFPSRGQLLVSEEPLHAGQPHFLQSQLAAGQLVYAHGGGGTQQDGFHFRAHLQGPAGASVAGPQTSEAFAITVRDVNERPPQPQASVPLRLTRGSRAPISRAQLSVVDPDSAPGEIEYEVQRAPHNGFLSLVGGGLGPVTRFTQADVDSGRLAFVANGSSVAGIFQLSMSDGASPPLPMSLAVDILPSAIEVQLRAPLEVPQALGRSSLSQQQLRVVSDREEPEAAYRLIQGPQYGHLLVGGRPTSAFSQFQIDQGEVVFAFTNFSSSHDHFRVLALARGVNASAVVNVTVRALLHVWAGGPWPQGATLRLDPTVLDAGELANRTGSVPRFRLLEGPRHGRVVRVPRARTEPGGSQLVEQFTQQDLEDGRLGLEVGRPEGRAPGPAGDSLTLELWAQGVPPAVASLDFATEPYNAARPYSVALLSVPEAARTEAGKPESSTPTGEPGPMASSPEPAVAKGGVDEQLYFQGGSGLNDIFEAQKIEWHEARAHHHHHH
The test can be described thus: SPR (ProteOn XPR36), biotinylated MCSP captured on NLC chip, purified aVH as analyte, 25 C.

Test [2] concerns the target T2, cynomolgus LAG3 on transiently transfected HEK293F cells (cynomolgus).
T2 construct: whole, on cells; also called cyno LAG3; cynomolgus Lag3-positive HEK cells
The experiment in a line: flow cytometry on HEK293F cells transfected with cyno LAG3, 10 µg/ml. In general terms: Flow cytometry measures light scatter and fluorescence of single cells or particles in a stream.

Test [3] concerns the target T3, human LAG3 on recombinant CHO cells (human, UniProt P18627 23-525).
T3 construct: whole, on cells; also called Lag3 cells; recombinant CHO cells expressing Lag3
T3 sequence (looked up): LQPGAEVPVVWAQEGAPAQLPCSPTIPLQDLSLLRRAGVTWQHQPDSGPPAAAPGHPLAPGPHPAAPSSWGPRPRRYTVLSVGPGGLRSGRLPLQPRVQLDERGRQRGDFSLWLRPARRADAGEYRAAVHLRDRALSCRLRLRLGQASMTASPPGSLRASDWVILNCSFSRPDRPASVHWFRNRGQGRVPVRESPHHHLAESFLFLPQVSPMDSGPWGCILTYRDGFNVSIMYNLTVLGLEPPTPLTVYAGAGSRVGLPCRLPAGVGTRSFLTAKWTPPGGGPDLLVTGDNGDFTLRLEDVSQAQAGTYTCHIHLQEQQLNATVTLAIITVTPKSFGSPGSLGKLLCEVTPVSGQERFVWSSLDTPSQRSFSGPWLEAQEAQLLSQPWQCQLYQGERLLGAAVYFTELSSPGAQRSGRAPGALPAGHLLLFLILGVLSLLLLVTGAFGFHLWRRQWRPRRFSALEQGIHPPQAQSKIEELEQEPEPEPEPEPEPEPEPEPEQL
The experiment in a line: cell ELISA on CHO cells expressing human LAG3.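 Further: bivalent Fc-format binders titrated in threefold steps from 6 µg/mL, incubated with the cells 2 h at 4 °C, bound antibody detected by HRP-coupled anti-human IgG.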

The target in test [4] is T4, soluble human Lag3-IgG1-Fc with biotinylated C-terminal Avi-tag (human, biotin on the C-terminal Avi-tag).
T4 construct: also called LAG3-Fc-avi; biotinylated LAG3-Fc antigen
The experiment in a line: A375 MHCII competition ELISA, biotinylated Lag3 250 ng/ml; competitor MHCII on A375 cells. (In general: ELISA stands for enzyme-linked immunosorbent assay.)

Test [5] concerns the target T4, soluble human Lag3-IgG1-Fc with …. The test can be described thus: A375 MHCII competition ELISA at 3 µg/ml, biotinylated Lag3 250 ng/ml; competitor MHCII on A375 cells.
Test [6] deals with T5, recombinant human LAG3 Fc Chimera Protein (R&D Systems, 2319-L3) (human, UniProt P18627 23-450).
T5 construct: Bought reagent
T5 sequence (looked up): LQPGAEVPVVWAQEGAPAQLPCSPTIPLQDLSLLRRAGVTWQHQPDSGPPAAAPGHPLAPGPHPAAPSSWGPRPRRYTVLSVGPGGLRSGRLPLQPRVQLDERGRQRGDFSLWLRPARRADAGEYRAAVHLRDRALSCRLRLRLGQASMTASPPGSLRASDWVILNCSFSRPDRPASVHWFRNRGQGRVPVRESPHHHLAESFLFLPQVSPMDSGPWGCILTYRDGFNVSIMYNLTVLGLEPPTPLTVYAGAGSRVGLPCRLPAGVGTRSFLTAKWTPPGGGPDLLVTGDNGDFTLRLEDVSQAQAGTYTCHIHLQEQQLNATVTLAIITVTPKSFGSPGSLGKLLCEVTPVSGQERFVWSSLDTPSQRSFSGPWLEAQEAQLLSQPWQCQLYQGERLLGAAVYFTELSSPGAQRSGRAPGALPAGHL
The experiment in a line: ELISA, plate coated with human LAG3 Fc chimera.

For test [7], the target named is T6, murine LAG3-Fc antigen (R&D Systems, 3328-L3-050) (murine, UniProt Q61790 24-442).
T6 construct: Bought reagent
T6 sequence (looked up): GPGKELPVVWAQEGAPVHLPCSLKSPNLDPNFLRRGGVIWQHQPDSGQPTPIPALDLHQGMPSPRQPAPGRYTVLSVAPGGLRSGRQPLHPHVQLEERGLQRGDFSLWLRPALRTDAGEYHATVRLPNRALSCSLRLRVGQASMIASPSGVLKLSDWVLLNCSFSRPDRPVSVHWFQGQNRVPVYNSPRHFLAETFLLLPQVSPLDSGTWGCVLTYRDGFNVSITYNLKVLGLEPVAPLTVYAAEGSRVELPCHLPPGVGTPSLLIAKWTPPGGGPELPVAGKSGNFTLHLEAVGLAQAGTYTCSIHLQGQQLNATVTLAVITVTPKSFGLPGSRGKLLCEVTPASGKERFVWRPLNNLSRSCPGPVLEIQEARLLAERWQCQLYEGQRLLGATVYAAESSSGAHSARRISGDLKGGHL
The test can be described thus: ELISA using murine LAG3-Fc antigen.

Test [8] concerns the target T5, recombinant human LAG3 Fc Chimera …. The experiment in a line: SPR (Biacore), aVH-Fc captured by anti-human Fc, human LAG-3 Fc chimera as analyte, 25 C. Background: In SPR one partner is held on a chip, and binding of the other changes the refractive index at the surface.

Where “and” joins values, the source holds several entries; their conditions need not be identical. Identical values can stand only once.

Broadly, the Kd is the concentration at which binding is half-saturated. A lower Kd goes with tighter binding. As a reminder, the koff is the rate constant with which the complex falls apart. By kon is commonly meant the rate constant with which the complex forms. One may read the EC50 as the concentration at which the effect is half-maximal. For orientation: IC50 means the concentration that inhibits the measured activity by half. Read a high IC50 as weaker potency in that assay. The % Inhibition is the percentage by which the read-out fell short of the control. Higher therefore signals a response far below the control.

B1: MCSP-specific disulfide-stabilized aVH clone 44 (VHH)
VHH: EVQLVESGGGLVQPGGSLRLSCAASGFNIKDGYIDWVRRAPGKGTELVASIECTNGRATRYADSVKGRFTISCDTSKNTAYLQMNSLRAEDTAVYYCAYAGIGYYFYYWGQGTTVTVSS
notes: Autonomous human VH domain purified from E. coli
In the case of B1, in test [1], the affinity, expressed as Kd, was 109 nM; the koff worked out at 0.0163 s⁻¹; the association rate constant (kon) was 150000 M⁻¹ s⁻¹.

B2: MCSP-specific disulfide-stabilized aVH clone 2 (VHH)
VHH: EVQLVESGGGLVQPGGSLRLSCAASSFNIKDTYIGWVRRAPGKGTELVASIDCIYGYTRYADSVKGRFTISCDTSKNTAYLQMNSLRAEDTAVYYCAAQGYRLHYWGQGTTVTVSS
notes: Autonomous human VH domain purified from E. coli by IMAC
Regarding B2, in test [1], the Kd is 8 nM, the koff came to 0.00339 s⁻¹ and the kon turned out to be 458000 M⁻¹ s⁻¹.

B3: MCSP-specific disulfide-stabilized aVH clone 57.1 (VHH)
VHH: EVQLVESGGGLVQPGGSLRLSCAASGFNIKQNCIEWVRRAPGKGTELVANICHDIGSTRYADSVKGRFTISADTSKNTAYLQMNSLRAEDTAVYYCAAWEQKGFNYWGQGTTVTVSS
notes: as for B1
Take B3: in test [1], the Kd worked out at 48 nM, the off-rate constant (koff) is 0.0142 s⁻¹ and the kon came to 295000 M⁻¹ s⁻¹.

B4: bivalent 9B4 aVH-Fc (Fc fusion)
chain: EVQLVESGGGLVQPGGSLRLSCAASGFNIKDTCIGWVRRAPGKGTELVAEICQDIGYTRYADSVKGRFTISADTSKNTAYLQMNSLRAEDTAVYYCAAVEVAEYFEYWGQGTTVTVSSGGGGSGGGGSDKTHTCPPCPAPEAAGGPSVFLFPPKPKDTLMISRTPEVTCVVVDVSHEDPEVKFNWYVDGVEVHNAKTKPREEQYNSTYRVVSVLTVLHQDWLNGKEYKCKVSNKALGAPIEKTISKAKGQPREPQVYTLPPSRDELTKNQVSLTCLVKGFYPSDIAVEWESNGQPENNYKTTPPVLDSDGSFFLYSKLTVDKSRWQQGNVFSCSVMHEALHNHYTQKSLSLSPGK
For the molecule B4, in test [2], the “LAG3 positive cells (%)” value stood at 68.8% and the “Signal intensity (Geo Mean)” value amounted to 2060 Geo Mean. Moreover, in test [3], the EC50 is 0.0288 µg/mL and 0.4 nM; the OD max came out at 1.3 OD. Moreover, in test [4], the IC50 was 0.0762 µg/mL and 1 nM. In test [5], the “% Inhibition” value came to 95.5%. Further, in test [6], the concentration giving a half-maximal response (EC50) is 0.0194 µg/mL and 0.3 nM; the OD max amounted to 1.2 OD. In test [7], the binding result is “no binding”. Also, in test [8], the koff worked out at 0.00019 s⁻¹ and the t1/2 was 1.02 h.

B5: bivalent P11E2 aVH-Fc (Fc fusion)
chain: EVQLVESGGGLVQPGGSLRLSCAASGFNIKDTCIGWVRRAPGKGTELVAEICDDIGYTRYADSVKGRFTISADTSKNTAYLQMNSLRAEDTAVYYCASQEHQWSFKYWGQGTTVTVSSGGGGSGGGGSDKTHTCPPCPAPEAAGGPSVFLFPPKPKDTLMISRTPEVTCVVVDVSHEDPEVKFNWYVDGVEVHNAKTKPREEQYNSTYRVVSVLTVLHQDWLNGKEYKCKVSNKALGAPIEKTISKAKGQPREPQVYTLPPSRDELTKNQVSLTCLVKGFYPSDIAVEWESNGQPENNYKTTPPVLDSDGSFFLYSKLTVDKSRWQQGNVFSCSVMHEALHNHYTQKSLSLSPGK
Take B5: in test [3], the EC50 is 0.0603 µg/mL and 0.8 nM; the OD max worked out at 1.2 OD. Moreover, the IC50 in test [4] is 0.155 µg/mL and 2.1 nM. Also, the “% Inhibition” value in test [5] amounted to 91%. Further, in test [6], the EC50 is 0.143 µg/mL and 1.9 nM; the OD max was determined as 1.1 OD. The binding result in test [7] is “no binding”. Further, in test [8], the koff was determined as 6.8e-05 s⁻¹ and the t1/2 stood at 2.83 h.

B6: bivalent 17D7 aVH-Fc (Fc fusion)
chain: EVQLVESGGGLVQPGGSLRLSCAASGFNIKDTCIGWVRRAPGKGTELVAEICTDIGYTRYADSVKGRFTISADTSKNTAYLQMNSLRAEDTAVYYCAAGEGSSGFHYWGQGTTVTVSSGGGGSGGGGSDKTHTCPPCPAPEAAGGPSVFLFPPKPKDTLMISRTPEVTCVVVDVSHEDPEVKFNWYVDGVEVHNAKTKPREEQYNSTYRVVSVLTVLHQDWLNGKEYKCKVSNKALGAPIEKTISKAKGQPREPQVYTLPPSRDELTKNQVSLTCLVKGFYPSDIAVEWESNGQPENNYKTTPPVLDSDGSFFLYSKLTVDKSRWQQGNVFSCSVMHEALHNHYTQKSLSLSPGK
Turning to B6, in test [2], the “LAG3 positive cells (%)” value stood at 63.6% and the “Signal intensity (Geo Mean)” value worked out at 1980 Geo Mean. For the same molecule, in test [3], the half-maximal effective concentration (EC50) was 0.0354 µg/mL and 0.5 nM; the OD max was 1.4 OD. The IC50 in test [4] is 0.104 µg/mL and 1.4 nM. In test [5], the “% Inhibition” value was 91.7%. In test [6], the EC50 is 0.0145 µg/mL and 0.2 nM; the OD max was determined as 1.2 OD. In addition, the binding result in test [7] is “no binding”. In test [8], the dissociation rate constant (koff) was determined as 0.00018 s⁻¹ and the t1/2 stood at 1.1 h.

B7: bivalent P11E9 aVH-Fc (Fc fusion)
chain: EVQLVESGGGLVQPGGSLRLSCAASGFNIKDTCIGWVRRAPGKGTELVAEICHDIGYTRYADSVKGRFTISADTSKNTAYLQMNSLRAEDTAVYYCAAEEHVASFEYWGQGTTVTVSSGGGGSGGGGSDKTHTCPPCPAPEAAGGPSVFLFPPKPKDTLMISRTPEVTCVVVDVSHEDPEVKFNWYVDGVEVHNAKTKPREEQYNSTYRVVSVLTVLHQDWLNGKEYKCKVSNKALGAPIEKTISKAKGQPREPQVYTLPPSRDELTKNQVSLTCLVKGFYPSDIAVEWESNGQPENNYKTTPPVLDSDGSFFLYSKLTVDKSRWQQGNVFSCSVMHEALHNHYTQKSLSLSPGK
With B7, in test [3], the EC50 was 0.0375 µg/mL and 0.5 nM; the OD max was 1.3 OD. Also, the IC50 in test [4] was 0.086 µg/mL and 1.1 nM. The “% Inhibition” value in test [5] is 97.2%. In addition, in test [6], the EC50 was 0.121 µg/mL and 1.6 nM; the OD max was 1.9 OD. In test [7], the binding result is “no binding”. Besides, in test [8], the koff was 2.4e-05 s⁻¹ and the t1/2 worked out at 8.16 h.

Values taken from patent US20200354457A1 (Hoffmann-La Roche, published 2020).
